Usually Kd stands for the free concentration of one partner at which half of the binding sites on the other are occupied at equilibrium, for simple one-to-one binding. The low end stands for a tighter complex, the high end for a looser complex.

For two molecules, Kd results are on record in publication PMC10658926, “Plasmodium vivax merozoite-specific thrombospondin-related anonymous protein (PvMTRAP) interacts with human CD36, suggesting a novel ligand–receptor interaction for reticulocyte invasion” (Parasites & Vectors, 2023).

Experiment [1] has as its target human CD36 (cluster of differentiation 36), ectodomain, Fc-fusion (human). The experiment is described as follows: BLI; Octet RED96; Fc-tagged receptor immobilised on protein G (ProG) biosensor, twofold serial dilution of His-tagged parasite ligand in HBS; KD from the response in equilibrium against concentration.
In experiment [2] the target is T1, Plasmodium vivax Duffy binding protein region II (PvDBP-RII), residues 194 to 521, His-tagged (Plasmodium vivax, UniProt P22290 194-521, biotin (biotinylated with co-transfected secreted E. coli BirA and D-biotin, for the ELISA bait)).
T1 construct: source: HEK293E, transfected, culture supernatant, purified (Ni-NTA agarose); not shown: His, C-terminal, kept
The description is as above. The conditions noted are these: both partners purified.

Consider “Plasmodium vivax merozoite-specific thrombospondin-related anonymous protein (PvMTRAP), full-length ectodomain, His-tagged (domain or fragment)”, for which, in experiment [1], the Kd was determined as 37 nM.

B1: Duffy antigen receptor for chemokines (DARC, CD234), residues 1 to 63, Fc-fusion (Fc fusion, human, UniProt Q16570 1-63, looked up)
chain: MGNCLHRAELSPSTENSSQLDFEDVWNSSYGVNDSFPDGDYGANLEAAAPCHSCNLLDDSALP
notes: Duffy antigen receptor for chemokines (CD234), human, residues 1 to 63; also called human DARC; source: HEK293E, transfected, culture supernatant, purified (HiTrap Protein G HP); not shown: Fc, C-terminal, kept
Consider B1, for which binding in experiment [2] was put at a Kd of 7.7 nM.
